# B1: BDNF: brain-derived neurotrophic factor, a neurotrophin used to stimulate hippocampal neurons (protein, UniProt P23560 19-247, looked up)
# Neurotrophic factor BDNF …: APMKEANIRGQGGLAYPGVRTHGTLESVNGPKAGSRGLTSLADTFEHVIEELLDEDQKVRPNEENNKDADLYTSRVMLSSQVPLEPPLLFLLEEYKNYLDAANMSMRVRRHSDPARRGELSVCDSISEWVTAADKKTAVDMSGGTVTVLEKVPVSKGQLKQYFYETKCNPMGYTKEGCRGIDKRHWNSQCRTTQSYVRALTMDSKKRIGWRFIRIDTSCVCTLTIKRGR
# How the values were obtained:
# Type in all cases: cell-based, mouse
# [1] = test system: miRNA reporter (CXCR4 shRNA); assay: CXCR4 miRNA-reporter luciferase assay; settings: BDNF stimulation, Actinomycin-D
# Text: The following CXCR4 siRNA/miRNA reporter assay constructs (Addgene) were used: siRNA reporter (PCD FLIP, Plasmid 12567), miRNA reporter (PCD FL4X, 12565), control luciferase reporter (PCD FLOX, 12563), and CXCR4 shRNA (pLKO.1 puro CXCR4 siRNA-2, 12272) (Wang et al., 2006). Let-7 luciferase reporters with wild-type or mutated Let-7 miRNA binding sites were gifts from G. Hannon (Liu et al., 2005b). 3′UTR reporters were constructed by inserting 3′UTRs from GluR1, CaMKIIu or KCC2 downstream of luciferase in pGL3-Control vector (Promega). A Lin28-resistant Let-7 pre-miRNA was generated by mutation of the conserved Lin28 “GGAG” recognition motif to “GtAt” in the terminal loop of pLV-hsa-let-7a-1 (Biosettia). […]
# 44 hours post-transfection, hippocampal cultures were treated with serum-reduced media (0.5% B27) and Actinomycin-D (0.5 ng/mL) as previously described, followed by BDNF stimulation 100 ng/mL for 4 hours. Cell lysates were collected in 1×lysis buffer (reporter lysis buffer, Promega), and luciferase (Promega) and chemiluminescent β-gal (Roche) reporter assays carried out according to manufacturer instructions using a plate-reading luminometer (Perkin Elmer). […] When required, fold change was calculated by dividing normalized stimulated samples by normalized unstimulated samples.
# [2] = test system: Let-7 family, miR-107, miR-143; assay: Individual TaqMan RT-qPCR of mature miRNA levels; settings: BDNF vs mock, normalized to 18s rRNA
# Experimental: For individual microRNA abundance assays (Applied Biosystems), 100 ng of total isolated RNA was prepared for reverse transcription with stem-looped primers specific for individual mature miRNAs in a final volume of 15 μL according to manufacturer's protocol; 4° C. for 5 min, 16° C. for 30 min, 42° C. for 30 min, 85° C. for 5 min. and subjected to TaqMan MicroRNA Assays (Applied Biosystems) for Let-7a (assay ID: 000377), Let-7b (002619), Let-7e (002406), Let-7f1 (000382), miR-107 (000443) and miR-143 ([…]). RT-qPCR was performed using a Stratagene Mx3000P machine and software with quantities derived by standard-curve quantitation method. The abundance of non-coding 18s rRNA in each sample was used as an internal control to normalize all miRNA species.
# cultured neurons = assay: 35S-labelling total protein synthesis; settings: mock or BDNF 100 ng/mL 2 hours, Actinomycin-D
# Experimental: Cultured neurons were pre-incubated in media containing reduced-serum and Actinomycin-D as previously described, followed by washing and incubation for 10 min with methionine- and cysteine-free DMEM (Mediatech, Inc.), and ^35S labeling in the same DMEM with the addition of ^355-methionine/cysteine (^35S Met/Cys EasyTag Mix, Perkin Elmer) to a final concentration of […]. Mock- or BDNF stimulation was for 2 hours. Cells were washed and lysed with lysis buffer (see immunoblotting). Lysates were centrifuged and collected supernatants subjected to Bradford assay. To assess newly synthesized proteins, 200-500 μg of lysates proteins were precipitated with 10% trichloroacetic acid (TCA) for 1 hour on ice in the presence of 0.5% deoxycholate (DOC) to remove interfering phenol red. After centrifugation, protein pellets were washed with ice-cold 95% ethanol, solubilized in denaturing buffer ([…] Tris pH 8.3, 5 mM EDTA, 0.05% SDS, 6M urea), and subjected to liquid scintillation counting (Econofluor, New England Nuclear, Inc.). ^35S Disintegration per minute (DPM) was used to quantitate protein synthesis after subtraction of background readings.
# KCC2 mRNA = assay: RT-qPCR of mRNA abundance; settings: control neurons, BDNF 100 ng/mL, 2 hours
# Experimental: For analysis of mRNA abundance: 1 μg of RNA was immediately reverse-transcribed into cDNA with a taqman reverse transcripton kit (Applied Biosystems) and a mixture of random decamer and oligo(dT) primers in a final volume of 30 μL and subjected to TaqMan Gene Expression Assays (Applied Biosystems) for GluR1 (assay ID: Mm00433753_m1), CaMKIIu (Mm00437967_m1), Homer2 (Mm01314936_m1), KCC2 (Mm00803929_m1), Kv1.1 (Mm00439977_s1), GW182 (Mm00523487_m1), GAPDH (Mm99999915_g1), and β-tubulin-III (Mm00727586_s1). RT-qPCR was performed using a Stratagene Mx3000P machine and software in 20 μL reactions on a 96-well optical plate at 95° C. for 5 min, followed by 40 cycles of 95° C. for 30 sec, 55° C. for 1 min and 72° C. for 30 sec. The threshold and threshold cycle (Ct) values were determined using default settings. Standard curves were constructed and used for quantitation of target transcript abundance. In this method, 1:5 dilution series of an independent Standard sample are amplified to generate a curve that relates the initial quantity of the specific target in the Standard samples to the Ct. The standard curve is then used to derive by interpolation the initial sample template quantities based on their Ct values. All derived quantities were further normalized to neuron-specific β-tubulin III, whose translational status is unchanged by BDNF (Schratt et al., 2004). […]
molecule,measurement,setting,value
B1,miRNA-mediated suppression of miRNA reporter by shCXCR4,[1],greatly enhanced miRNA-mediated suppression
same,"abundance of Let-7 family members, miR-107 and miR-143",[2],significant and reproducible BDNF-induced decreases in abundance
same,total protein synthesis (35S incorporation),cultured neurons,modest enhancement of total translation
same,KCC2 mRNA levels,KCC2 mRNA,reduced mRNA levels

# From US20150148405A1, “Expression Construct for a Lin28-Resistant Let-7 Precursor MicroRNA” (THE JOHNS HOPKINS UNIVERSITY, priority 2012, published 2015)
